These results are taken from patent US20200385487A1 (PURDUE PHARMA L P, published 2020).

In general, Kd refers to the free concentration of one partner at which half of the binding sites on the other are occupied at equilibrium, for simple one-to-one binding. What is called koff is the first-order rate constant of dissociation. By kon is commonly meant the rate constant with which the complex forms. Usually EC50 (read off the curve) stands for the concentration that produces a half-maximal response.

Experiment [1] concerns the target T1, recombinant soluble human tissue factor (hTF) (human, UniProt P13726 33-251).
T1 construct: also called soluble hTF
Briefly: SPR (Biacore X), soluble hTF immobilized on CM5 chip, antibody injected; global fit Langmuir 1:1. On the procedure: Binding properties of anti-hTF MAbs were evaluated using a Biacore X (Biacore Inc., Uppsala, Sweden). Briefly, a CM5 Biacore biosensor chip was docked into the instrument and activated with 55 μL of 1:1 NHS/EDC reagent (Biacore Inc.) at room temperature. The recombinant soluble hTF and BSA (10 μg/mL in 0.05 M acetate buffer, pH 4.5) were immobilized on the activated chip in flow cells 1 and 2, respectively. Immobilization was carried out at a flow rate of 5 μL/min until a resonance response of 1000-2000 RU was achieved. The chip was then blocked by injection of 55 μL of ethanolamine-HCl, pH 8.5, followed by five washes with 50 mM NaOH, 1 M NaCl.
To measure the binding of anti-hTF MAbs to the soluble hTF immobilized to the chip, 30 μL of anti-hTF MAbs at varying concentrations in Biacore running buffer (HBS-EP, Biacore Inc.) were injected over the sensor surface at a flow rate of 5 μL/min. Following completion of the injection phase, dissociation was monitored in BIAcore running buffer at the same flow rate for 360 sec. The surface was regenerated between injections using 30 μL of 50 mM NaOH-1 M NaCl. Individual sensorgrams were analyzed using […] software. Results for the Biacore/SPR binding analyses are shown in FIGS. 11A and 11B and Table 7.
For orientation: SPR reads the build-up and loss of mass on a sensor chip optically.

Experiment [2] addresses T2, Recombinant Human Coagulation Factor III (tissue factor), R&D Systems (human, UniProt P13726 33-251).
T2 construct: Bought reagent
Briefly: ELISA: 100 ng/well Recombinant Human Coagulation Factor III coated on plate, antibody titrated 1000 to 0.97 ng/ml, goat anti-human Fc-HRP, TMB, OD at 450 nm. How it is done:
The binding of humanized variants of TF antibody B278, including B278-LC7HC4, LC7HC5, LC7HC6, LC8HC4, LC8HC5, and LC8HC6 variants, to recombinant human coagulation factor III (tissue factor) was assessed by ELISA analysis. The chimeric antibody B278-LC0HC0 was used as a control. In brief, 100 ng/well of Recombinant Human Coagulation Factor III (R&D Systems, UK) was immobilized onto 96 well Maxisorp plates in coating buffer (0.5 mM NaHCO₃ brought to pH 9.5 by the addition of 0.5 mM Na₂CO₃) overnight at 4° C. Coating buffer was removed and the plates were washed once in PBS Tween (PBS-T) (0.05% (v/v) Tween 20). 200 μl per well of 3.0% (w/v) semi skim milk in PBS was added and the plates were agitated for 2 hours at room temperature. Plates were washed three times with PBS-T.
Purified humanized variants of the TF antibody B278 (LC7HC4; LC7HC5; LC7HC6; LC8HC4; LC8HC5; LC8HC6) were serially diluted from 1,000 ng/ml to 0.97 ng/ml in incubation buffer (PBS, 1% (w/v) BSA), and 100 μl added per well.
Following agitation for two hours at room temperature, the plate was washed three times with PBS-T. 100 μl/well of goat anti-human HRP (Fc specific) (Sigma, UK) (1:60,000 PBS) was added and plates incubated for one hour with agitation at room temperature. The plates were washed three times with PBS-T and once in PBS. 100 μl/well of 3,3′,5,5′-Tetramethylbenzidine (TMB) substrate solution was added and incubated at 37° C. for 10 minutes. 50 μl of 1M HCl were added per well and the plates immediately read at 450 nm on a Tecan Sunrise plate reader.

B1: chimeric antibody B278-LC0HC0 (antibody, V domains shown)
VH: EVQLQQSGAELMKPGASVKISCKATGYTFSSYWIEWVKQRPGHGLEWIGEILPGSASTKYNEKFKGKATFTADTSSNTAYMQLSSLTSEDSAVYYCARDYYYGSSYGFAYWGQGTLVTVSS
VL: QAVVTQESALTTSPGETVTLTCRSSTGAVTTSNYANWVQEKPDHLFTGLIGGTNNRGPGVPARFSGSLIGDKAALTITGAQTEDEAVYFCALWYSNHWVFGGGTKLTVLG
notes: also called Ab LC0HC0 (chimeric B278); chimeric B278 control antibody
Turning to B1, in experiment [1], the Kd stood at 0.0249 µM, the koff stood at 0.0011 s⁻¹ and the kon was 43000 M⁻¹ s⁻¹. For the same molecule, the 50% effective concentration (EC50 (read off the curve)) in experiment [2] was around 0.04 mg/L.

B2: humanized tissue factor antibody B278-LC7HC6 variant (antibody, human IgG1, lambda, V domains shown)
VH: EVQLQQSGAEVMKPGASVKISCKASGYTFSSYWIEWVKQAPGQGLEWIGEILPGSASTKYNEKFKGRVTFTADTSTNTAYMELSSLRSEDTAVYYCARDYYYGSSYGFAYWGQGTLVTVSS
VL: QAVVTQEPSLTVSPGGTVTLTCRSSTGAVTTSNYANWVQQKPGQLPKGLISGTNNRGPWTTARFSGSILGDKAVLTLWGAHTEDEAVYYCALWYSNHWVFGGGTKLTVLG
notes: Full-length humanized antibody; Expressed transiently in CHO cells; also called Ab LC7HC6; PS-F09-2016-012
On to B2, for which, in experiment [1], the Kd worked out at 0.0253 µM, the off-rate (koff) came out at 0.0007 s⁻¹ and the association rate constant (kon) was 28000 M⁻¹ s⁻¹.

B3: LC7HC5 (antibody, V domains shown)
VH: QVQLQESGAEVKKPGASVKVSCKASGYTFSSYWIEWVRQAPGQGLEWMGEILPGSASTKYNEKFKGRVTMTADTSTNTVYMELSSLRSEDTAVYYCARDYYYGSSYGFAYWGQGTLVTVSS
VL: QAVVTQEPSLTVSPGGTVTLTCRSSTGAVTTSNYANWVQQKPGQLPKGLISGTNNRGPWTTARFSGSILGDKAVLTLWGAHTEDEAVYYCALWYSNHWVFGGGTKLTVLG
notes: Humanized B278 variant, expressed transiently in CHO cells; also called B278-LC7HC5; B278-LC7HC5 variant
Turning to B3, in experiment [2], the “EC50 (read off the curve)” value is around 0.05 mg/L.

B4: LC8HC5 (antibody, V domains shown)
VH: QVQLQESGAEVKKPGASVKVSCKASGYTFSSYWIEWVRQAPGQGLEWMGEILPGSASTKYNEKFKGRVTMTADTSTNTVYMELSSLRSEDTAVYYCARDYYYGSSYGFAYWGQGTLVTVSS
VL: QSALIQPPSVSGSPGQSVTISCRSSTGAVTTSNYANWVQQHPGTVPKPMIYGTNNRGPGVPDRFSGSKSGNTASMTISGLQAEDEADYFCALWYSNHWVFGGGTKLTVLG
notes: Humanized B278 variant, expressed transiently in CHO cells; also called B278-LC8HC5; B278-LC8HC5 variant
For the molecule B4, the binding result in experiment [2] is “no binding (tested: 1000 ng/ml)”.

B5: LC7HC4 (antibody, V domains shown)
VH: QVQLQESGAEVKKPGASVKVSCKASGYTFSSYWIEWVRQAPGQGLEWMGEILPGSASTKYNEKFKGRVTMTRDTSTSTVYMELSSLRSEDTAVYYCARDYYYGSSYGFAYWGQGTLVTVSS
VL: QAVVTQEPSLTVSPGGTVTLTCRSSTGAVTTSNYANWVQQKPGQLPKGLISGTNNRGPWTTARFSGSILGDKAVLTLWGAHTEDEAVYYCALWYSNHWVFGGGTKLTVLG
notes: Humanized B278 variant, expressed transiently in CHO cells; also called B278-LC7HC4; B278-LC7HC4 variant
For B5, the “EC50 (read off the curve)” value in experiment [2] was around 0.06 mg/L.

B6: LC8HC6 (antibody, V domains shown)
VH: EVQLQQSGAEVMKPGASVKISCKASGYTFSSYWIEWVKQAPGQGLEWIGEILPGSASTKYNEKFKGRVTFTADTSTNTAYMELSSLRSEDTAVYYCARDYYYGSSYGFAYWGQGTLVTVSS
VL: QSALIQPPSVSGSPGQSVTISCRSSTGAVTTSNYANWVQQHPGTVPKPMIYGTNNRGPGVPDRFSGSKSGNTASMTISGLQAEDEADYFCALWYSNHWVFGGGTKLTVLG
notes: Humanized B278 variant, expressed transiently in CHO cells; also called B278-LC8HC6; B278-LC8HC6 variant
As for B6, the binding result in experiment [2] is on record as “no binding (tested: 1000 ng/ml)”.

B7: LC8HC4 (antibody, V domains shown)
VH: QVQLQESGAEVKKPGASVKVSCKASGYTFSSYWIEWVRQAPGQGLEWMGEILPGSASTKYNEKFKGRVTMTRDTSTSTVYMELSSLRSEDTAVYYCARDYYYGSSYGFAYWGQGTLVTVSS
VL: QSALIQPPSVSGSPGQSVTISCRSSTGAVTTSNYANWVQQHPGTVPKPMIYGTNNRGPGVPDRFSGSKSGNTASMTISGLQAEDEADYFCALWYSNHWVFGGGTKLTVLG
notes: Humanized B278 variant, expressed transiently in CHO cells; also called B278-LC8HC4; B278-LC8HC4 variant
For the molecule B7, the binding result in experiment [2] is listed as “no binding (tested: 1000 ng/ml)”.
